Data on three molecules can be found in article PMC11388335.

Experiment [1] concerns the target PP1^Clover (PP1γ catalytic subunit fused to the FRET donor Clover) (human) (UniProt P36873). As to the kind of experiment: FRET or BRET; binary complexes SDS22^TAMRA-PP1^Clover (SP) or PP1^Clover-I3^TAMRA (PI) lacking the other subunit, incubated with p97, p37, ATP and NIPP1 as in a3. (Bioluminescence resonance energy transfer reports proximity on the nanometre scale.)

For experiment [2] the target is unchanged. Kind of experiment: FRET or BRET; ternary complexes SDS22^TAMRA-PP1^Clover-I3 or SDS22-PP1^Clover-I3^TAMRA (160 nM); FRET while the complex is formed, lost with p97 (160 nM), p37 (480 nM), ATP (2 mM) and unlabeled NIPP1 (240 nM); p97 buffer + 2% BSA + 1 mM DTT, 30 °C.
Experiment [3] shares this target. As to the kind of experiment: FRET or BRET; in vitro subunit exchange: SDS22-PP1^Clover-I3 (160 nM) with p97 (160 nM), p37 (480 nM), ATP (2 mM) and NIPP1^TAMRA (240 nM); p97 buffer + 2% BSA + 1 mM DTT, 30 °C; rise of acceptor/donor ratio.
Experiment [4] deals with His-PP1γ^Clover (PP1 of the binary SP and NP complexes) (human) (UniProt P36873). Kind of experiment: FRET or BRET; binary complexes SDS22^TAMRA-PP1^Clover (SP) or PP1^Clover-I3^TAMRA (PI) lacking the other subunit, incubated with p97, p37, ATP and NIPP1 as in a3.

Regarding “I3^TAMRA (His-I3-LPETGGG labeled by sortase with a TAMRA Strep-tag peptide) (from UniProt O60927 1-126) (natural protein)”, the rate constant of p97-p37-mediated dissociation, binary complex without SDS22 (exponential fit of FRET) in experiment [1] stood at 0.0734 min⁻¹. Further, in experiment [2], the rate constant of p97-p37-mediated dissociation (exponential fit of FRET) came out at 0.69 min⁻¹ and the rate constant of p97-p37-mediated dissociation, ternary complex (exponential fit of FRET) worked out at 0.644 min⁻¹.
In the case of “NIPP1^TAMRA (His-NIPP1-LPETGGG labeled by sortase with a TAMRA Strep-tag peptide) (from UniProt Q12972 1-351) (natural protein)”, the rate constant of NIPP1 association after p97-p37-mediated release of PP1 (exponential fit of FRET) in experiment [3] is 0.33 min⁻¹.

B1: SDS22^TAMRA (GGG-SDS22 labeled by sortase with a TAMRA Strep-tag peptide) (natural protein)
chain: MAAERGAGQQQSQEMMEVDRRVESEESGDEEGKKHSSGIVADLSEQSLKDGEERGEEDPEEEHELPVDMETINLDRDAEDVDLNHYRIGKIEGFEVLKKVKTLCLRQNLIKCIENLEELQSLRELDLYDNQIKKIENLEALTELEILDISFNLLRNIEGVDKLTRLKKLFLVNNKISKIENLSNLHQLQMLELGSNRIRAIENIDTLTNLESLFLGKNKITKLQNLDALTNLTVLSMQSNRLTKIEGLQNLVNLRELYLSHNGIEVIEGLENNNKLTMLDIASNRIKKIENISHLTELQEFWMNDNLLESWSDLDELKGARSLETVYLERNPLQKDPQYRRKVMLALPSVRQIDATFVRF
modifications: TAMRA on the ligated peptide (TAMRA)-…
B1 registered a rate constant of dissociation with p97-p37, binary complex without I3 (exponential fit of FRET) in experiment [4] of 0.0003 min⁻¹. For the same molecule, in experiment [2], the rate constant of p97-p37-mediated dissociation (exponential fit of FRET) was 0.64 min⁻¹ and the rate constant of p97-p37-mediated dissociation, ternary complex (exponential fit of FRET) amounted to 0.714 min⁻¹.
